From patent US20160151519A1 (JOHN HOPKINS UNIVERSITY, published 2016)

B2: carcinoembryonic antigen (CEA) immunopurified from LS174T colon carcinoma cell lysate (ligand, human, UniProt P06731 35-685, looked up)
chain: KLTIESTPFNVAEGKEVLLLVHNLPQHLFGYSWYKGERVDGNRQIIGYVIGTQQATPGPAYSGREIIYPNASLLIQNIIQNDTGFYTLHVIKSDLVNEEATGQFRVYPELPKPSISSNNSKPVEDKDAVAFTCEPETQDATYLWWVNNQSLPVSPRLQLSNGNRTLTLFNVTRNDTASYKCETQNPVSARRSDSVILNVLYGPDAPTISPLNTSYRSGENLNLSCHAASNPPAQYSWFVNGTFQQSTQELFIPNITVNNSGSYTCQAHNSDTGLNRTTVTTITVYAEPPKPFITSNNSNPVEDEDAVALTCEPEIQNTTYLWWVNNQSLPVSPRLQLSNDNRTLTLLSVTRNDVGPYECGIQNELSVDHSDPVILNVLYGPDDPTISPSYTYYRPGVNLSLSCHAASNPPAQYSWLIDGNIQQHTQELFISNITEKNSGLYTCQANNSASGHSRTTVKTITVSAELPKPSISSNNSKPVEDKDAVAFTCEPEAQNTTYLWWVNGQSLPVSPRLQLSNGNRTLTLFNVTRNDARAYVCGIQNSVSANRSDPVTLDVLYGPDTPIISPPDSSYLSGANLNLSCHSASNPSPQYSWRINGIPQQHTQVLFIAKITPNNNGTYACFVSNLATGRNNSIVKSITVSASGTSPGLSA
modifications: sialofucosylated (HECA-452-reactive) O-linked glycans
notes: mature; One entry for CEA from wild-type and from CD44-knockdown LS174T cells; Used as blot band or adsorbed on microspheres; also called CD66e; CEACAM5

Columns and labels:
[1] = molecular target: E-selectin-IgG Fc chimera (human) (UniProt P16581); test: flow-based adhesion assay, sialidase-treated against untreated PCLP-coated microbeads on 10 µg/ml E-selectin at 1 dyn/cm2
[2] = molecular target: B2; test: blot rolling assay with human peripheral blood lymphocytes at 0.5 dyn/cm2
Text: FIGS. 6A-6B provides the Western blot results from CD66e experiments. […] B: Selectin-dependent adhesion to SDS-PAGE resolved and blotted CEA immunoprecipitated from CD44-knockdown LS174T whole cell lysate. CHO-E cells, lymphocytes or CHO-P cells were perfused at the wall shear stress level of 0.5 dyn/cm² over SDS-PAGE immunoblots of immunopurified CD66e from whole cell lysate of CD44-knockdown LSI 74T cells. In select experiments, CHO-E cells and lymphocytes were pre-treated with an anti-E-selectin or an anti-L-selectin function blocking mAb (20 μg/ml), respectively, before use in blot rolling assays. The saturating concentration of the mAb (20 μg/ml) was maintained in the perfusion assays. Data represent the mean±S.E. of n≧3 experiments.
(§1) Fuhlbrigge et al., I 68 J. IMMUNOL. 5645-5651 (2002). The blots were placed under a parallel-plate flow chamber, and human peripheral blood lymphocytes or CHO transfectants, re-suspended at 5×10⁶ cells/ml in 90% D-PBS/I 0% glycerol, were perfused at the shear stress of 0.5 dyn/cm². Hanley et al., 20 FASEB J. 337-339 (2006); Napier et al., 282 J. BIOL. CHEM. 3433-3441 (2007); and Thomas et al., 283 J BIOL CHEM 15647-15655 (2008). Molecular weight markers were used as guides to aid placement of the flow chamber over stained bands of interest. […] Non-specific adhesion was assessed by perfusing 5 mM EDTA in the flow medium.

[3] = molecular target: T1, P-selectin on CHO cells stably transfected with the phosphatidylinositol glycan-linked extracellular domain … (UniProt P16109 42-771, limits assumed, phosphatidylinositol glycan-linked); test: blot rolling assay: CHO-P cells perfused at 0.5 dyn/cm2 over blot of immunopurified CEA
T1 construct: extracellular domain; also called P-selectin-expressing CHO cells
T1 sequence (looked up): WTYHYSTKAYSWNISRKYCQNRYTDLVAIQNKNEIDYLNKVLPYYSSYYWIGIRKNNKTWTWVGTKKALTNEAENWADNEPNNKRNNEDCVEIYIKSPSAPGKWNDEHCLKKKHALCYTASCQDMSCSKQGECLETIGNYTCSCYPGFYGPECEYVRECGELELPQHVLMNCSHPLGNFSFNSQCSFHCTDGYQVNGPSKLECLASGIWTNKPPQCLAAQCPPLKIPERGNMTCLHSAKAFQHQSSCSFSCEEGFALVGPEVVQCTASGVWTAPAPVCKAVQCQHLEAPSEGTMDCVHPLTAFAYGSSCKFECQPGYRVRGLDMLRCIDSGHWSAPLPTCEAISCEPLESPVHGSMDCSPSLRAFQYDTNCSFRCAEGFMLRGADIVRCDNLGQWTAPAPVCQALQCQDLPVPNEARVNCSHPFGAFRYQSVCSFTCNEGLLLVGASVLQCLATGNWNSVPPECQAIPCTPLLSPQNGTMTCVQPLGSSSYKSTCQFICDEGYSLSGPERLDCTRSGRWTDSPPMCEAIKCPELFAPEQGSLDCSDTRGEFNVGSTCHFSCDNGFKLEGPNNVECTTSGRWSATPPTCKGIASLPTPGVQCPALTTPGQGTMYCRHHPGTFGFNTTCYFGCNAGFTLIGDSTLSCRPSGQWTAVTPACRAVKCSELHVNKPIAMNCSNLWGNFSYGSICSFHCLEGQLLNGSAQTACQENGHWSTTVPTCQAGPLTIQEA
Procedure: In select experiments, CHO-E cells and lymphocytes were pre-treated with an anti-E-selectin or an anti-L-selectin function blocking mAb (20 μg/ml), respectively, before use in blot rolling assays. The saturating concentration of the mAb (20 μg/ml) was maintained in the perfusion assays. Data represent the mean±S.E. of n≧3 experiments.
as §1, with “CHEM.” for “CHEM. 3433-3441 (2007); and Thomas et al., 283 J BIOL CHEM 15647-15655 (2008). Molecular weight markers were used as guides to aid placement of the flow chamber over stained bands of interest.”
Although previous studies have reported that CEA and CEA-family members such as CD66c (Kuijpers, et al., 118(2) J CELL BIOL. 457-466 (1992)) bind E-selectin under static/no-flow conditions, the capacity of CEA to interact with E-selectin under physiologically relevant flow conditions as well as its potential cross-reactivity with L- and P-selectin have yet to be examined. […] The specificity of these adhesive interactions was assessed by incubating CHO-E cell suspensions or lymphocytes with an anti-E-selectin or an anti-L-selectin function-blocking mAb, respectively (FIG. 6B).

[4] = molecular target: B2; test: cell-free flow-based adhesion assay, CEA-coated microspheres
Text: A cell-free flow-based adhesion assay (Hanley, et al., 20(2) FASEB J. 20(2), 337-339 (2006); Napier, et al., 282(6) J. BIOL. CHEM. 3433-3441 (2007)) was used to compare the adhesion of microspheres coated with CEA immunopurified from wildtype versus CD44-knockdown LS174T colon carcinoma cells to selectin substrates in shear flow. This technique allows quantitative comparisons of CEA-mediated adhesion to selectin substrates at prescribed CEA and selectin site densities under physiological flow conditions.
To test this hypothesis, the CEA-coated microspheres were perfused over purified selectin substrates under prescribed wall shear stress levels. As expected from blot rolling assays, microspheres coated with CEA from either cell type were capable of tethering and rolling over E- and L-, but not P-, selectin substrates, albeit with varying efficiencies (FIG. 8C-E). Most importantly, the extent of tethering of CD44-knockdown LS174T CEA-coated microspheres to E-selectin was lower than that of microspheres decorated with CEA from wildtype LS174T cells (FIG. 8C). […] In contrast, no difference was detected in either the extent of tethering (FIG. 8C) or the average rolling velocities (FIG. 8E) of microspheres coated with CEA from either cell type over L-selectin.

[5] = molecular target: T2, CD66c immunopurified from LS174T colon carcinoma cell lysate (human, UniProt P40199 35-320); test: cell-free flow-based adhesion assay, CD66c-coated microspheres
T2 construct: mature; Blot band or adsorbed on microspheres
T2 sequence (looked up): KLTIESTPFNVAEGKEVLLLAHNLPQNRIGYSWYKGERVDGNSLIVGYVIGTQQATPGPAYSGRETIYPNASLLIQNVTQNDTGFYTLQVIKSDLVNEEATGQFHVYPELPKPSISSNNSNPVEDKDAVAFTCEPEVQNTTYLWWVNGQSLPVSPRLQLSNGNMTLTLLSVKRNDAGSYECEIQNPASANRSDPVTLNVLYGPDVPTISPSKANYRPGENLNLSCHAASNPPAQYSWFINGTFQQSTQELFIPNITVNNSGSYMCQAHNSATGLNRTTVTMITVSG

podocalyxin-like protein (PCLP) immunopurified from LS174T colon carcinoma cell lysate (from UniProt O00592 23-558) (ligand)
reduction of binding after sialidase treatment [1]: 80%

B1: L-selectin on human peripheral blood lymphocytes (receptor, UniProt P14151 39-372, looked up)
chain: WTYHYSEKPMNWQRARRFCRDNYTDLVAIQNKAEIEYLEKTLPFSRSYYWIGIRKIGGIWTWVGTNKSLTEEAENWGDGEPNNKKNKEDCVEIYIKRNKDAGKWNDDACHKLKAALCYTASCQPWSCSGHGECVEIINNYTCNCDVGYYGPQCQFVIQCEPLEAPELGTMDCTHPLGNFSFSSQCAFSCSEGTNLTGIEETTCGPFGNWSSPEPTCQVIQCEPLSAPDLGIMNCSHPLASFSFTSACTFICSEGTELIGKKKTICESSGIWSNPSPICQKLDKSFSMIKEGDYNPLFIPVAVMVTAFSGLAFIIWLARRLKKGKKSKRSMNDPY
notes: whole, on cells; also called Lymphocyte (L-selectin); L-selectin-expressing human peripheral blood lymphocytes
binding result [2]: binds

B2
binding result [3]: no binding

B3: P-selectin-IgG Fc chimera (Fc fusion, human, UniProt P16109 42-321, looked up)
chain: WTYHYSTKAYSWNISRKYCQNRYTDLVAIQNKNEIDYLNKVLPYYSSYYWIGIRKNNKTWTWVGTKKALTNEAENWADNEPNNKRNNEDCVEIYIKSPSAPGKWNDEHCLKKKHALCYTASCQDMSCSKQGECLETIGNYTCSCYPGFYGPECEYVRECGELELPQHVLMNCSHPLGNFSFNSQCSFHCTDGYQVNGPSKLECLASGIWTNKPPQCLAAQCPPLKIPERGNMTCLHSAKAFQHQSSCSFSCEEGFALVGPEVVQCTASGVWTAPAPVCKA
notes: domain: lectin, epidermal growth factor and consensus repeat domains; From Wyeth External Research; immobilised on dishes; also called chimeric form of P-selectin-IgG Fc; not shown: human IgG1 (printed 'IgGi'); selectin domains linked to each arm of the IgG
binding result [4]: no binding (tested: 10 µg/ml P-selectin coating)

B4: E-selectin-IgG Fc chimera (Fc fusion, human, UniProt P16581 22-301, looked up)
chain: WSYNTSTEAMTYDEASAYCQQRYTHLVAIQNKEEIEYLNSILSYSPSYYWIGIRKVNNVWVWVGTQKPLTEEAKNWAPGEPNNRQKDEDCVEIYIKREKDVGMWNDERCSKKKLALCYTAACTNTSCSGHGECVETINNYTCKCDPGFSGLKCEQIVNCTALESPEHGSLVCSHPLGNFSYNSSCSISCDRGYLPSSMETMQCMSSGEWSAPIPACNVVECDAVTNPANGFVECFQNPGSFPWNTTCTFDCEEGFELMGAQSLQCTSSGNWDNEKPTCKA
notes: domain: lectin, epidermal growth factor and consensus repeat domains; From Wyeth External Research; immobilised on dishes (10 µg/ml for microbeads, 0.75 µg/ml for cells); also called chimeric form of E-selectin-IgG Fc; not shown: human IgG1 (printed 'IgGi'); selectin domains linked to each arm of the IgG
binding result [5]: no binding
